Values quoted from earlier work, collected in patent publication US20260265329A1, “POLYPEPTIDE AND DERIVATIVE THEREOF, COMPOSITION, AND USE THEREOF” (HANGZHOU SCIWIND BIOSCIENCES CO., LTD., priority 2023, published 2026).
No end group written: not given here.

How the values were obtained:
[1] = cited from earlier work
[2] = in vivo, background statement; cited from earlier work

## Amylin (KCNTATCATQRLANFLVHSSNNFGAILSSTNVGSNTY; not fully specified (C-terminus, bridges); cysteine pairing not given here; UniProt P10997 34-70, looked up) [polypeptide hormone consisting of 37 amino acids, member of the calcitonin protein family]
[1]; background statement
  fibrillation: strong tendency towards fibrillation
[1]; pH 7, background statement
  chemical stability: chemical instability at pH 7
[2]
  half-life: short half-life in vivo
